Measurements taken from article PMC7954794, “Protein context shapes the specificity of SH3 domain-mediated interactions in vivo” (Nature Communications, 2021).

B1: Sho1 WT (protein, UniProt P40073 1-367, looked up)
High osmolarity signaling …: MSISSKIRPTPRKPSRMATDHSFKMKKFYADPFAISSISLAIVSWVIAIGGSISSASTNESFPRFTWWGIVYQFLIICSLMLFYCFDLVDHYRIFITTSIAVAFVYNTNSATNLVYADGPKKAAASAGVILLSIINLIWILYYGGDNASPTNRWIDSFSIKGIRPSPLENSLHRARRRGNRNTTPYQNNVYNDAIRDSGYATQFDGYPQQQPSHTNYVSSTALAGFENTQPNTSEAVNLHLNTLQQRINSASNAKETNDNSNNQTNTNIGNTFDTDFSNGNTETTMGDTLGLYSDIGDDNFIYKAKALYPYDADDDDAYEISFEQNEILQVSDIEGRWWKARRANGETGIIPSNYVQLIDGPEEMHR
B2: Boi2 WT (protein, UniProt P39969 1-1040, looked up)
BEM1-interacting protein 2: MSNDREVPTLSQLNTTVSRDKDVSDTLSPDFDSKGSATGRDGGNFPMYIAINEYFKRMEDELDMKPGDKIKVITDDEEYKDGWYFGRNLRTNEEGLYPVVFTQKITVEKAPTLMRAKSTKRIYSPLTNEDPLLSSTFISENDSNSELPTPQPIETAASISRTANGKIERNLSLKNTMSDIDNALLEFKDDSIGPPDRFINSGRDEEHSITHETILSATDGLDVVESNSKPTTSSSTGFLNGDLENQATLINGIDTTKLNPVEAEFWSPEEITAYFIMEGYDVQSASRFQKHKISGKILLELELVHLKELDINSFGTRFEIFKEIEKIKEAIRTNGRSLNRASKTNNANIYNQLMPPANVDQRASYRGHVRKTSQSLEDLPSQQNFIPTPRNTRNSSASKHRPKSLVFDSQEANANIAPDVQIPQVVEEMAGNENLFVSPRRAPKPPSYPSPAQPPKSPLLNNTRTSPSPAQLYSWQSPTLSFSGPKRTSYIDQYSSSDSNFNSRSALPKNNQGGGKALSPIPSPTRNSVRNEDSEGKLTSSSKRNSVPYYGYAPESSSDRKSSCSSHEEEQFQETMNTFERPTSSIYADGSTIASISNDKLAHEKEGKKKPTRHSSSLSSKSKSDSRRNSSLKRSSSASRTSSFKKSSFMLSPFRQQFTDNAARSSSPEENPITSMPSEKNSSPIVDKKSSKKSRSKRRSVSAKEAEIFTETVKDDKNKRSASEAIKGETLKGKSLRQMTARPVAKKKQTSAFIEGLRSISVKEAMKDADFSGWMSKKGSGAMSTWKTRFFTLHGTRLSYFSSTTDTRERGLIDITAHRVVPAKEDDKLVSLYAASTGKGRYCFKLLPPQPGSKKGLTFTQPRTHYFAVDNKEEMRGWMAALIKTTIDIDTSVPIISSYTTPTVSLSKAQEMLAEAREETKLREQQMLENEEDEDQFLWDQQQLQQQQHDNNQGQADRTISASTQRTSDEDNTISTPNLSSANNTTIGSNGFSSPFLLASGLLSPGVARNSSMRGTEKKGKFSTEEDYFGDNSKHKTDKI
B3: Pin3 WT (protein, UniProt Q06449 2-215, looked up)
[PSI+] inducibility protein 3: SASLINRSLTNIRTELDFLKGSNVISNDVYDQINKSLPAKWDPANAPRNASPASLEYVEALYQFDPQQDGDLGLKPGDKVQLLEKLSPEWYKGSCNGRTGIFPANYVKPAFSGSNGPSNLPPPPQYKAQELQQIPTQNSAASSYQQQPFPPPSTNYYQQPQQQPQQAPPPQQQQQQQQHQSSHSHLKSFGSKLGNAAIFGAGASIGSDIVNNIF
B4: Sla1 WT (protein, UniProt P32790 1-1244, looked up)
Actin cytoskeleton-regulatory …: MTVFLGIYRAVYAYEPQTPEELAIQEDDLLYLLQKSDIDDWWTVKKRVIGSDSEEPVGLVPSTYIEEAPVLKKVRAIYDYEQVQNADEELTFHENDVFDVFDDKDADWLLVKSTVSNEFGFIPGNYVEPENGSTSKQEQAPAAAEAPAATPAAAPASAAVLPTNFLPPPQHNDRARMMQSKEDQAPDEDEEGPPPAMPARPTATTETTDATAAAVRSRTRLSYSDNDNDDEEDDYYYNSNSNNVGNHEYNTEYHSWNVTEIEGRKKKKAKLSIGNNKINFIPQKGTPHEWSIDKLVSYDNEKKHMFLEFVDPYRSLELHTGNTTTCEEIMNIIGEYKGASRDPGLREVEMASKSKKRGIVQYDFMAESQDELTIKSGDKVYILDDKKSKDWWMCQLVDSGKSGLVPAQFIEPVRDKKHTESTASGIIKSIKKNFTKSPSRSRSRSRSKSNANASWKDDELQNDVVGSAAGKRSRKSSLSSHKKNSSATKDFPNPKKSRLWVDRSGTFKVDAEFIGCAKGKIHLHKANGVKIAVAADKLSNEDLAYVEKITGFSLEKFKANDGSSSRGTDSRDSERERRRRLKEQEEKERDRRLKERELYELKKARELLDEERSRLQEKELPPIKPPRPTSTTSVPNTTSVPPAESSNNNNSSNKYDWFEFFLNCGVDVSNCQRYTINFDREQLTEDMMPDINNSMLRTLGLREGDIVRVMKHLDKKFGRENIASIPTNATGNMFSQPDGSLNVATSPETSLPQQLLPQTTSPAQTAPSTSAETDDAWTVKPASKSESNLLSKKSEFTGSMQDLLDLQPLEPKKAAASTPEPNLKDLEPVKTGGTTVPAAPVSSAPVSSAPAPLDPFKTGGNNILPLSTGFVMMPMITGGDMLPMQRTGGFVVPQTTFGMQSQVTGGILPVQKTGNGLIPISNTGGAMMPQTTFGAAATVLPLQKTGGGLIPIATTGGAQFPQTSFNVQGQQQLPTGSILPVQKTANGLISANTGVSMPTVQRTGGTMIPQTSFGVSQQLTGGAMMTQPQNTGSAMMPQTSFNAVPQITGGAMMPQTSFNALPQVTGGAMMPLQRTGGALNTFNTGGAMIPQTSFSSQAQNTGGFRPQSQFGLTLQKTGGIAPLNQNQFTGGAMNTLSTGGVLQQQQPQTMNTFNTGGVMQELQMMTTFNTGGAMQQPQMMNTFNTDGIMQQPQMMNTFNTGGAMQQPQQQALQNQPTGFGFGNGPQQSRQANIFNATASNPFGF
B5: Myo5 WT (protein, UniProt Q04439 1-1219, looked up)
Myosin-5: MAILKRGARKKVHQEPAKRSANIKKATFDSSKKKEVGVSDLTLLSKISDEAINENLKKRFLNATIYTYIGHVLISVNPFRDLGIYTDAVMNEYKGKNRLEVPPHVFAIAESMYYNMKSYNENQCVIISGESGAGKTEAAKRIMQYIAAASSTHTESIGKIKDMVLATNPLLESFGCAKTLRNNNSSRHGKYLEIKFNNQFEPCAGNITNYLLEKQRVVSQIKNERNFHIFYQFTKGASDAYRQTFGVQKPEQYVYTAAAGCISAETIDDLQDYQETLKAMRVIGLGQEEQDQIFRMLAAILWIGNVSFIENEEGNAQVRDTSVTDFVAYLLQIDSQLLIKSLVERIMETNHGMKRGSVYHVPLNIVQADAVRDALAKAIYNNLFDWIVSRVNKSLQAFPGAEKSIGILDIYGFEIFEHNSFEQICINYVNEKLQQIFIQLTLKSEQETYEREKIQWTPIKYFDNKVVCDLIEARRPPGIFAAMNDSVATAHADSNAADQAFAQRLNLFTTNPHFDLRSNKFVIKHYAGDVTYDIDGITDKNKDQLQKDLVELIGTTTNTFLATIFPDTVDRESKRRPPTAGDKIIKSANDLVETLSKAQPSYIRTIKPNETKSPNDYDDRQVLHQIKYLGLQENVRIRRAGFAYRQVFEKFVERFYLLSPHCSYAGDYTWQGDTLDAVKYILQDSSIPQQEYQLGVTSVFIKTPETLFALEHMRDRYWHNMAARIQRAWRRFLQRRIDAATKIQRTIRERKEGNKYEKLRDYGTKVLGGRKERRSMSLLGYRAFMGDYLSCNESKSKGAYIKRQVSIKEKVIFSIHGEALHTKFGRSAQRLKKTFLLTPTTLYIVGQTLVQNAMTYTQDYKIDVRNIQAVSLTNLQDDWVAIKLASSGQPDPLINTYFKTELITHLKRLNDKIQIKIGSAIEYQKKPGKLHSVKCQINESAPKYGDIYKSSTISVRRGNPPNSQVHKKPRKKSSISSGYHASSSQATRRPVSIAAAQHVPTAPASRHSKKPAPPPPGMQNKAATRRSVPNPASTLTASQSNARPSPPTAATRATPAATPAAAAMGSGRQANIPPPPPPPPPSSKPKEPMFEAAYDFPGSGSPSELPLKKGDVIYITREEPSGWSLGKLLDGSKEGWVPTAYMKPHSGNNNIPTPPQNRDVPKPVLNSVQHDNTSANVIPAAAQASLGDGLANALAARANKMRLESDDEEANEDEEEDDW
B6: Nbp2 WT (protein, UniProt Q12163 1-236, looked up)
NAP1-binding protein 2: MATMETTTQKDTNILKSGLKKTIGVLNEAVLQNGREVEAVQAGNSDTMEDTETTTIGYISIKDYAYADSNPLHYGYFDGDNEEDEMVSDSSNGEDTYNKRQSITLPDDYIVNQRAVALYDFEPENDNELRLAEGDIVFISYKHGQGWLVAENESGSKTGLVPEEFVSYIQPEDGENEVENKARPFYLTHLITQSVSPKNNIDNTNEDEYDDNDEWEDIDDVAEVEADMKTKLDISD
B7: Abp1 WT (protein, UniProt P15891 2-592, looked up)
Actin-binding protein: ALEPIDYTTHSREIDAEYLKIVRGSDPDTTWLIISPNAKKEYEPESTGSSFHDFLQLFDETKVQYGLARVSPPGSDVEKIIIIGWCPDSAPLKTRASFAANFAAVANNLFKGYHVQVTARDEDDLDENELLMKISNAAGARYSIQTSSKQQGKASTPPVKKSFTPSKSPAPVSKKEPVKTPSPAPAAKISSRVNDNNDDDDWNEPELKERDFDQAPLKPNQSSYKPIGKIDLQKVIAEEKAKEDPRLVQKPTAAGSKIDPSSDIANLKNESKLKRDSEFNSFLGTTKPPSMTESSLKNDDDKVIKGFRNEKSPAQLWAERKAKQNSGNAETKAEAPKPEVPEDEPEGEPDVKDLKSKFEGLAASEKEEEEMENKFAPPPKKSEPTIISPKPFSKPQEPVKAEEAEQPKTDYKKIGNPLPGMHIEADNEEEPEENDDDWDDDEDEAAQPPLPSRNVASGAPVQKEEPEQEEIAPSLPSRNSIPAPKQEEAPEQAPEEEIEEEAEEAAPQLPSRSSAAPPPPPRRATPEKKPKENPWATAEYDYDAAEDNELTFVENDKIINIEFVDDDWWLGELEKDGSKGLFPSNYVSLGN

test system: SH3-deleted bait proteins (1xFLAG); assay: Western blot expression level of SH3-deleted baits (Fig. S1F-G); format: cell-based, Saccharomyces cerevisiae; settings: Western blot Flag signal, 1xFLAG-tagged WT or SH3-deleted bait; sheet FigS1F-G
Experimental: Precultures of yeast cells expressing baits fused with the DHFR F[1,2]-FLAG were grown overnight at 30 °C with agitation in synthetic complete medium. The next day, cells were expanded in synthetic complete medium to reach their exponential phase (OD600 of around 1.0), pelleted, and frozen at −80 °C. The equivalent of fifty OD600 of cells was resuspended in ice-cold yeast lysis buffer (10 mM Tris-HCl pH 7.4, 150 mM NaCl, 0.5 mM EDTA (Millipore Sigma), 1% Triton X-100 (Millipore Sigma), and one cOmplete Mini Protease Inhibitor Cocktail (Millipore Sigma) per 10 mL) with […] glass beads (Millipore Sigma) and disrupted at 4 °C by 10 cycles of 2 min vortexing and 2 min cooldown. The equivalent of […] of lysed cells was used for the immunoprecipitation of the bait proteins using FLAG-M2 agarose beads (Millipore Sigma). The beads were incubated with the cell lysates for 120 min at 4 °C with a slow rotation, followed by three washes with the yeast lysis buffer.
Protein extracts and affinity-purified baits from yeast and human lysed cells were migrated on 10% polyacrylamide gels. The separated proteins were then transferred to nitrocellulose membranes. Validation of correct protein loading was done with ponceau staining of the membranes. Before the primary antibody incubations, membranes were blocked in 5% milk. Protein signals were detected on an Amersham Imager 600RGB (GE Healthcare) following the incubation of the membranes with the appropriate HRP-conjugated secondary antibodies and the Clarity Western ECL Substrate (Bio-Rad). The antibodies used in this study are M2-HRP (A8592, Sigma, 1/50,000), rabbit anti-FLAG (F7425, Sigma, 1/1000), PAK (SC-881, Santa Cruz, 1/200), p130cas/BCAR1 (SC-860, Santa Cruz, 1/200), actin (Cell Signaling Technology, 1/2000), anti-mouse HRP (Cell Signaling Technology, 1/10,000) and anti-rabbit HRP (Cell Signaling Technology, 1/10,000). The quantification of the WB signals was performed with the Amersham Imager 600 analysis software (GE Healthcare).

First: B1
Second: B2
The Flag of the first is higher: 42239 for the first, 12024 for the second.

Compared with B3, B4 is lower in Flag: 304553 for the first, 58812 for the second.

Going from B5 to B6, the Flag rises from 93590 to 158710.

B7 showed a Flag of 9263.
